Molecular target: T1, NRSF/REST DBD (refolded by 2DR) (UniProt Q13127 159-412)
T1 sequence: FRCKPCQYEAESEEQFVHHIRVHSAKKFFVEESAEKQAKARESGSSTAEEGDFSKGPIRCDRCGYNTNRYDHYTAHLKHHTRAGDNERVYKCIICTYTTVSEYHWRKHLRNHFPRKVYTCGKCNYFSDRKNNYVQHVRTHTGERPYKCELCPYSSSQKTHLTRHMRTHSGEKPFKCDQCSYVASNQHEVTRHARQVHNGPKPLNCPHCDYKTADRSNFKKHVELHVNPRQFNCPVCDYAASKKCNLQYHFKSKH
Experiment: EMSA; 0.1 mM ZnCl2; DBD:DNA 0:1 to 3:1, 75 pmol DNA in 20 ul; 10 mM Tris pH 7.0, 0.1 mM ZnCl2, 20 ul, 30 min at room temperature; 5% native PAGE, EtBr stain
Details: protein: recombinant; label: none (EtBr stain); blunt

B1: NRSE/RE1 dsDNA (dsDNA)
DNA 1: TTCAGCACCACGGACAGCGCC
DNA 2: GGCGCTGTCCGTGGTGCTGAA
binding result: binds

Source: PMC3146519, “Highly Efficient Production of Soluble Proteins from Insoluble Inclusion Bodies by a Two-Step-Denaturing and Refolding Method”
